This test deals with isolated iron-loaded transferrin C-lobe (Fe-C-lobe). Briefly: biosensor binding assay (SPR), equilibrium analysis.

The values that follow come from paper PMC300677.

The term Kd denotes the concentration at which binding is half-saturated. Lower therefore signals a tighter complex.

With “soluble human transferrin receptor 1 (TfR) ectodomain, wild type (from UniProt P02786) Y123S”, the Kd was 800 nM (KD1) and 5700 nM (KD2). The ratio to parent runs as follows: (KD1) 1; (KD2) 1.7.
On to “soluble human transferrin receptor 1 (TfR) ectodomain, wild type (from UniProt P02786) D125K”, for which the Kd (KD1) came to 1000 nM and the Kd (KD2) stood at 2600 nM. The ratio to parent is, setting by setting: (KD1) 1.2; (KD2) 0.8.
As for “soluble human transferrin receptor 1 (TfR) ectodomain, wild type (from UniProt P02786) F760A”, the Kd was determined as 1900 nM (KD1) and 2700 nM (KD2). For the same substance, the ratio to parent runs as follows: (KD1) 2.4; (KD2) 0.8.
As for “soluble human transferrin receptor 1 (TfR) ectodomain, wild type (from UniProt P02786) R651A”, the ratio to parent (KD1, KD2 relative to wild-type, single entry) was greater than 1000.
